Source: US20220127354A1 (Amgen, published 2022)
Residue numbers refer to the chain shown, from its start. Numbers in names are those of the source. Values belong to the binder of their own block, whether it stands above or below them.

Legend:
Test in all cases: flow cytometry, transfected 293T cells
[1] = biological target: T1, huCDH19(44-141)::muCDH19(140-770) with Flag tag (construct B, Hu EC1) (human/mouse chimera)
T1 construct: leader left out; the entry starts at residue 44; also called C137897
Description: (§1) The experiment included assaying the anti-CDH19 antibodies against mouse Cadherin19 to determine suitability for binning on these human/mouse chimeras.

[2] = biological target: T2, muCDH19(44-139)::huCDH19(142-364)::muCDH19(363-770) with Flag tag (construct E, Hu EC2-3) (human/mouse chimera)
T2 construct: leader left out; the entry starts at residue 44; also called C137847
Description: as §1

[3] = biological target: T3, muCDH19(44-247)::huCDH19(250-364)::muCDH19(363-770) with Flag tag (construct F, Hu EC3) (human/mouse chimera)
T3 construct: leader left out; the entry starts at residue 44; also called C137911
Description: as §1

[4] = biological target: T4, huCDH19(44-249)::muCDH19(248-770) with Flag tag (construct C, Hu EC1-2) (human/mouse chimera)
T4 construct: leader left out; the entry starts at residue 44; also called C137896
Description: as §1

[5] = biological target: T5, muCDH19(44-139)::huCDH19(142-249)::muCDH19(248-770) with Flag tag (construct D, Hu EC2) (human/mouse chimera)
T5 construct: leader left out; the entry starts at residue 44; also called C137913
T5 chain: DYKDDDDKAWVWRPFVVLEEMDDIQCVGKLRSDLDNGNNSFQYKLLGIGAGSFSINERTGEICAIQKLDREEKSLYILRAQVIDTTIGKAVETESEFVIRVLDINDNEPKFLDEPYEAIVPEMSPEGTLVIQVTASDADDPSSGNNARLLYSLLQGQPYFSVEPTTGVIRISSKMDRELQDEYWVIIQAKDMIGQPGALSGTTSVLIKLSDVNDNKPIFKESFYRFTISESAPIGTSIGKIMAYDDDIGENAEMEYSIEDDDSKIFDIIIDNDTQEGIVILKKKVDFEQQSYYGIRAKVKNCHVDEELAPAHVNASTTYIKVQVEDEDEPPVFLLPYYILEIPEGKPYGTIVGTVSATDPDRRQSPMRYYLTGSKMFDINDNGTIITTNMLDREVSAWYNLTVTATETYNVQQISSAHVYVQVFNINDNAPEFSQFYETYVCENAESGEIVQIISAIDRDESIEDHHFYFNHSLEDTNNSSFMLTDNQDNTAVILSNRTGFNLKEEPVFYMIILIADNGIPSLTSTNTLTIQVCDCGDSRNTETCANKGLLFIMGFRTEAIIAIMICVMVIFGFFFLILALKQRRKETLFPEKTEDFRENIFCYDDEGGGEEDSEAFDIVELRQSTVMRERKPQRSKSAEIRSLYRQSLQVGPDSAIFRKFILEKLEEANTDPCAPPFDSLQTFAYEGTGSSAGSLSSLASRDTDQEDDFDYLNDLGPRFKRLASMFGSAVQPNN
Description: as §1

[6] = biological target: T6, muCDH19(44-461)::huCDH19(464-772) with Flag tag (construct H, Hu EC5) (human/mouse chimera)
T6 construct: leader left out; the entry starts at residue 44; also called C137915
T6 chain: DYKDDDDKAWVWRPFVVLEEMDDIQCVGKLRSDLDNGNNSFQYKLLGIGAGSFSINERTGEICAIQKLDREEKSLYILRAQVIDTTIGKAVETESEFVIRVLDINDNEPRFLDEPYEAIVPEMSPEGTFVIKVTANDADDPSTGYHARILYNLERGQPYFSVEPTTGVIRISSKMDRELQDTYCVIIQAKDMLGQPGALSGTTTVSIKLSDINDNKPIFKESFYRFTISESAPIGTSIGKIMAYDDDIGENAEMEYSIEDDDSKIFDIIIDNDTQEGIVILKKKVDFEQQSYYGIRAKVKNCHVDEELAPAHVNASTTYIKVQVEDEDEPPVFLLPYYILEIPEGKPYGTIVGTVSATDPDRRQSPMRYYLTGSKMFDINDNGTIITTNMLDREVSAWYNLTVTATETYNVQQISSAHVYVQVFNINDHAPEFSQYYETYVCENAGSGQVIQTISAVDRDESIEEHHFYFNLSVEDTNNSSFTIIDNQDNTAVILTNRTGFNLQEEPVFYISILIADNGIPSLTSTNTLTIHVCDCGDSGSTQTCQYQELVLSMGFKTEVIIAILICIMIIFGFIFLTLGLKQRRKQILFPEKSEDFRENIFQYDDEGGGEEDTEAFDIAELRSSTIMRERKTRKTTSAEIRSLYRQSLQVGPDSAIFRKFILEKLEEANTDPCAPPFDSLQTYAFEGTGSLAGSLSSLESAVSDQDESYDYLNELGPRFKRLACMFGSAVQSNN
Description: as §1

[7] = biological target: T7, muCDH19(44-770) with Flag tag (construct I, Mu EC1-5) (mouse)
T7 construct: leader left out; the entry starts at residue 44; also called Mo EC1-5; mouse Cadherin19
T7 chain: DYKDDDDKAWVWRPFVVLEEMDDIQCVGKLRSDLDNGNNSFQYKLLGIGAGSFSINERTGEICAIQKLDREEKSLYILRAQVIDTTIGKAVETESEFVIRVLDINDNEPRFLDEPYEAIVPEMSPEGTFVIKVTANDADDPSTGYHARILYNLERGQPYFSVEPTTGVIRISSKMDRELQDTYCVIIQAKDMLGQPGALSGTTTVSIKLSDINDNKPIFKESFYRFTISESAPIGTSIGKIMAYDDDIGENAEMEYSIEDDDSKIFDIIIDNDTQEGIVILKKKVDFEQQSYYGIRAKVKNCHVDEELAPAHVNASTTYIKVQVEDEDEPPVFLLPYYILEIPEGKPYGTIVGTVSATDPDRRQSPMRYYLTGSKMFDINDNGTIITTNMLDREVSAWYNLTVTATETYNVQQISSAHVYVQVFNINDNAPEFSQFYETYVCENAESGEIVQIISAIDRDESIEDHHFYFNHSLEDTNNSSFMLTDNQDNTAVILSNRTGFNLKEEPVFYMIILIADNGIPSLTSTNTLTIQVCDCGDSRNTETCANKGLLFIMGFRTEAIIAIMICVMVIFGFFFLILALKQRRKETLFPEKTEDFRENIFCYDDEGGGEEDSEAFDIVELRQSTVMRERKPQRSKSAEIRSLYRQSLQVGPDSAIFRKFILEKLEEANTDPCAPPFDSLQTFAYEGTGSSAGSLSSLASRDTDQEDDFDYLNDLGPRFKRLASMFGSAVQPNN
Description: as §1

[8] = biological target: huCDH19(44-772) with Flag tag (construct A, Hu EC1-5) (human, UniProt Q9H159 44-772)
Description: as §1

[9] = biological target: T8, muCDH19(44-362)::huCDH19(365-772) with Flag tag (construct G, Hu EC4-5) (human/mouse chimera)
T8 construct: leader left out; the entry starts at residue 44; also called C137917
T8 chain: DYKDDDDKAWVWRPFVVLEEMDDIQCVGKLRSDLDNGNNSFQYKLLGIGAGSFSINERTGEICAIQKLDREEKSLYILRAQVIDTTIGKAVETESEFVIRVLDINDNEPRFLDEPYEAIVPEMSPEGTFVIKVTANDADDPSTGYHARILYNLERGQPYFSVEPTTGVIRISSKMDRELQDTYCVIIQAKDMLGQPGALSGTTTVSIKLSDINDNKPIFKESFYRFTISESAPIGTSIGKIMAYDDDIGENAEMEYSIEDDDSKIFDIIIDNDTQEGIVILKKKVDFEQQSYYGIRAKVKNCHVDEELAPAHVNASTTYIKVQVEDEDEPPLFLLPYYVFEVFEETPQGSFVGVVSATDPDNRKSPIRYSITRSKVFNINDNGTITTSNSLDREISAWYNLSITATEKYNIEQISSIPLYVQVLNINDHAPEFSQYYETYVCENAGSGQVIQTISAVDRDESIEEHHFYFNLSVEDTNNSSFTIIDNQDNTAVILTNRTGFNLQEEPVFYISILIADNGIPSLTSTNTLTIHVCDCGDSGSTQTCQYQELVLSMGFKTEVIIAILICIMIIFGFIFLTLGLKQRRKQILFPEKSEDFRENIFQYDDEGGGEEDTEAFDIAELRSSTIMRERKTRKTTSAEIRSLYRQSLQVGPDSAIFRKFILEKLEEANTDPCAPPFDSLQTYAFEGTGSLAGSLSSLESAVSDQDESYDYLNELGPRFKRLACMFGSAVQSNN
Description: as §1

binding result [1]: binds
binding result [2]: binds
binding result [3]: binds
binding result [4]: binds
binding result [5]: binds
binding result [6]: binds
binding result [7]: binds
binding result [8]: binds
binding result [9]: binds
B1: hu anti-<huCDH19> 2G6 (1-477)(R17G) VH::huIgG1z + 23A10.3 (1-231)(C42S) VL::huLLC-C2 (Ab ID 14304) (antibody, V domains shown)
VH: QVQLVESGGGVVQPGGSLRLSCAASGFTFSSYGMHWVRQAPGKGLEWVAFIWYDGSNKYYADSVKDRFTISRDNSKNTLYLQMKSLRAEDTAVYYCARRAGIIGTIGYYYGMDVWGQGTTVTVSS
VL: SYELTQPPSVSVSPGQTASITCSGDRLGEKYVSWYQQKPGQSPILVIYQDNKWPSGIPERFSGSNSGNTATLTISGTQAMDEADYYCQAWDSSTVVFGGGTKLTVLG
notes: light chain is that of 23A10.3 (C42S); Bin 4

binding result [1]: binds
binding result [2]: binds
binding result [3]: binds
binding result [4]: binds
binding result [5]: binds
binding result [6]: binds
binding result [7]: binds
binding result [8]: binds
binding result [9]: binds
B2: hu anti-<huCDH19> 2G6 (1-477)(R17G,D61E,D72E,K94N) VH::huIgG1z + 2G6 (1-234)(C42S,D110E) VL::huLLC-C1 (Ab ID 14039) (antibody, V domains shown)
VH: B1 VH with D54E, D62E, K84N
VL: B1 VL with V32T, K38R, I44L, N51T, W53R, D91E
notes: Engineered variant of 2G6; the entries already carry the changes; Bin 4
